From the domain aggregation screens of Martell et al. (2025)

Experiment: soluble fraction after stress (log2 fold change); higher = more stays soluble; pooled small domains, quantitative proteomics
Settings: stress: 50 degC
Outline: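 After stress at 50°C, the amount of each protein still soluble was measured. This was done on pooled custom libraries of small protein domains, using high-throughput quantitative proteomics. The figure given is a base-two log fold change and stands for aggregation propensity, with higher values meaning more protein stays in solution.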

Sequence	soluble fraction (log2)
HMHELKIEKVAEAPNGAMRLLLSDGSEWVLGVKSWNRLNLSLEKILDVNVLRALEKESQYHLLRTKALEL	-0.395
HMKQKAEVIFVSKTIMEALSKGVRLTPENLKSETELPIDDFYARLKELIDNGSVVESRENGESYLEAGN	0.0977
HMSKPLEVFKLTSEPFGFSFNTALGRSYTVEATGDLGVWKAVELFQGSGGEIRFTAKPTSSGGAQFFRVFV	-0.0927
HMTKAILTANDVRNGDIVFWTADQRWSTSIDDAAIGYGKDDTDQLADAGKQAEAANTVVGAYLIALR	-0.276
HMDAYMIGHNIAKWRKEKGMTQDQLAEHLSVSGQAVSKWENGASLPDIAILPKLAEIFDVTMDQLFSR	0.144
HMWAVDFVLLDKDDQRIGNAVAYRDDRTKGMDEEVYRTVPEEELYASTGIQKQIFNSIYQLMAWKK	0.0151
HMIDEQDLKKYILISTSVEELTDYLGATDRMLYDYLYSLKHVGQYWQLNERFLLDLYKLPNLVIVDKEDLE	-0.136
HMKTLDATQRLKLNGEGIIVFNFGKYVDQPVVEIFKKERGYFAWMMSKDFSQQVKNIITKIHNEEILGK	-2.76
HMNATLEQLTQREREIAVLMAEGLTNAQIGSRLNVSMASVKAHLSHIFTKLGVDNRVSAAMMVL	-0.654
HMKGVTVDGDNITVDGEKQTLISVNKNLDGDVVSYTYRTADGKLRTSRNVEVAQEINKQQLLKSIDAQ	0.0821
HMSEEGTIPDVSGQDEASAQKALENAGFTNIKSEAVYSEEEQGTVIDTNPTAGTKVSKDTEITMQVSKGSE	-0.34
HMERFVVISKDKYANLREEASTNSKVLAKVDNSYLIYNTNTYNENKDWYSVQIERDGNYYQVGYIHKSQL	-1.79
HMTARPTLEKLKYMIHEAGITENSLKVIVATKGHYGLDADISTYSDDFITRWIIPNWTKIVQTISNNK	-0.348
HMRREIRLTVTEEIVLMKFLLTQIPYKNRDNFKTLLNDRQIRVNGSVVTWYNHPLKPGQEVTIGWFKM	-0.168
HMLQKEVHQQIQQALRALPYHQRTAIVLYYYEGMSVKEIAQATGSMQGTVQSRLFFARKKLRPILESILKK	-0.453
HMPKMDGLTVMEQVNQDHFVNKRPYFIVITAVGQEKITEDAFNKGANYYVMKPFNNNMLLERIKSVRK	0.294
HMAIKNKNEQLEAIIKFADLRGEFKTADIEELLSIKSSRARLLISELVKIGKLESIGSNRNRRYHIK	-0.52
HMVDLANIDPIASSIKLNGAEADASFNTLEDRRVSVSGSFEENKNYTMEYTFKDYAGGSVTGTLDFKTLA	0.137
HMSPAETGIYHILVENGKPNRHGLDATNKNENWLRQFLITQNTRLEDVFLLLADDGGGIRFFKSQ	-0.498
HMARKFQKDTGYLNKKERTWLLDFFPSLKKYLYTGAYIRSIIVVESNVTYTDKELPSNYTFTYKFA	-0.252
HMRRVRRTRRLLQDGLLGLMQHKAVADISVKELAEAADVARATVYVHFKDPADVLHQLEQGLY	-0.0324
HMLSNKIEQLRKEKGYTFAKLSELSGISTGRLSDLATGKRNNPTMDTLIKLADALDVTLDELVGR	0.14
HMSENLESEFFGIVVITQTLLQKELRDKPMTVELIRKTVEDVMSKHYSDSSVDKAKVEEELIRRFSTW	-0.164
HMDDILAYEIEDKEDLENLSLGKSIGINLNKLIKPTLNSFDNSLLFLSKKGNIISYGKLNGDLFKPKKVL	0.0598
HMKQVEVESVIGKSEEAANSILTKAGLKVNIGYKEDSSKPTDTVLSQDPAPGEKVDEGTTVTIVVNNYKKP	0.0614

Sequence	soluble fraction (log2)
HMDGSEYAGTVRLGDGTLQPVPRFETSNSETPKYLYLVMDVTHDPPVYILEHESAELKSVLGGLVLIGSYS	0.0759
HMDRMMQPETWGRVYQWITDDPQVPDREEVLTLIKYHYGDFGKLMKLLHRLNEGKAWTYLSEHIFPRM	-0.123
HMQPMIQIHTLANHAPVALHIKRNTQRNIIIRARDASSLNLSIPKWFSPAQLQNWLRDNEATLIRILQQAP	-2.49
HMAVPAALVQAWLELSRRMVAGTQDVGERFAEEARKMHYGETEDRGIRGQATLTEVRDLLDEGIEVLPLLL	-0.392
HMEQVVFNGTGRRKSSIARVRIMSGKGNITVNGKALDEYFGEETLKVIVRQPLTVTDTLDKYDVIATVK	0.203
HMSESLLTAAGFKTIAATTPEQKRHLEWLHPDQVTAVQLTGQHYYVYPDVAKSQLFVGTPKEYQAYLALRT	-0.414
HMTIAFPSNDVDAVVGYFESRGFDRTASISTATVILQQAKIDGVKVFELIDTLQGMDKVQLSYIVTEILN	0.03
HMALQDKYAELLTAANTMGVTNLAVAEKDGTLHVSGTAKSTADYDSLWALYDKIDPNMASGDLMMNI	0.0408
HMVKNLRKLREELGLTQQRLAELTGISKSRIYSYESLDREPDIAGLITLADFFSVSIDYLVGK	-1.78
HMANILKHKNKDGVITSYTIRVYHGYDEAGKRLRPYTMNYKPAPNMTARQIEKELNRQAVQFEEQIKNGYA	-0.699
HMATPKRGFRKQLAPLVQSGTITREEAGELSRSSGDATALRTKIGELMKAGKLTRKEAGELYSDAFPENA	0.153
HMEDDRLIQNLLLTAKNLVMDVGRMDESALAENEDTVRTAMLFALGYLYENRSNPDYHKLTLNLRSILFA	-0.493
HMSTFTPYLVKVTTSVLNIRKGAGTNYGTNGSIRDMGTYTIVAEADGQGASKWGKLKSGAGWISLDYTKK	-1.94
HMAVSDPTAGGIKALMYPNPAQDRLSVALDIPAGLDKQAQMTVTDMMGRVVTQQQVTLNDGFQVFEL	0.215
HMSKKMTNEEILNFLKKVLIKHGKISGFIIDEDDNGPSSSVVASRFGGLLNAYKLINYTPER	-0.506
HMGSLQPLLLAAIDALQTHIRSGLPFRVEERLAELDQFRTELQNGSVPPQRGVNRLWAFYEDEFRL	-0.798
HMKEQLITVYVSGAVARPGLYELPAGIRAQEAVEAAGGFTEAANHEKVNLAKKLKDGSQVNVPALK	-0.0032
HMSINQTIEGKKQGYWIIYGNMRNLQEYLSNEVIEEGQFKNSRKEGVWRKYFPGGQMKSEITYINGRP	-0.309
HMSEQSEALRTGLDQLPINQRTALTLFHLHELNQSEVAKIMNISVGAVESLLFRGRQKMKQLLTSD	-0.725
HMAENTKKWDETGRRYRSYIKLEKRLSENTVESYMRDYMQFAHFILRQWDVAPHKVEPQMVERYMAWLYER	-0.00858
HMSGSGYAYVDKYGYSHVVKDYDTAKNYASDGNVYNYSGSHKGGYAYDADNYRVPLDLPGSKPYG	-0.0115
HMTGWINVDKNWYYMNNSGSMARGMINVNNVSYYLDENGKMLSNTTVNVNGTDYRIDASGAMSQI	-0.564
HMESLSHRQKSIVDWVQKNGYASIERMAEQFEVSAQTIRRDVIELSERRILQRHHGGASLPAG	-0.0143
HMGPWTETAAKGDAVSKRMLITWLQENADAEFLAAQKLTGQATSVAKRVTKDQLVELYLSVTTAA	-0.53
HMSLAVFLQGLLEEKQLKKADVIRRTGMEPTYGYHIFDGHKKHPARSKVLLLALAMGLTVKEAQHLLYYAG	-0.116

Sequence	soluble fraction (log2)
HMQGISGIERSLLDALAFEPAGLDALQARTGLDTPTLQALLMGLELQGHVARLPGSLFQRLVR	-0.523
HMDIGTYTVTASALNIRQYPTASSAKTGSYPNGSIVTIYEYLTDGSWGRTDDGWISMNYVSRRY	-2.01
HMSDYKSALQEAVQTNKQSIEYVLIKESGPAHNKTFTFEVRIDNISYGVGTAKSKKEAEQIAAKDALDKLV	-0.0635
HMDISPAAKQRLALIQPLLEKNAEAITDRKLRNAVAKDIANNQNTTVRRVLRLYYRYLATGQVM	0.0392
HMHLTRYLHTMIRAANLDDTLDFFVEKLGLIEAYRYSNEAGRFTLVFLSAPDDLESAQSRQAPLVEITYN	-0.107
HMENEDMTGDIRVIDYIRNVAEYIQTTKGQASASQMLDRFLFPPELQYTPLDKLSGGEQRRLYLLKVLMEA	0.0342
HMRPKVADIDYFDGKTFTIEDGSKHSITTSEAKKIYFYLVKNGYVDDESHVTDAYRSAATSGTLA	-0.0505
HMGKPSSEELEALGRRTLEENVDVVEEILGGRDPKGKKIKYLEGLMMRALRGQETPEAVRRTLEELIFK	0.0847
HMRLPLYLALAQTLRQEIDAKQYKIGAHLPPEDQLVVKYGVSRHTVRQALQELKNEGLITSKAGIGTIVSS	-0.666
HMQISDESSIAKIADEVISEFPSQVSEFRSGKEKVLQFLIGQVMKKTKGKANPQITAKILREKLS	0.119
HMTSNKTVPYSELKGLISTGKIEYVGIGNTQIRAVSKSGAGIVTYTARRVIPDDTLIPELEKNGIAYGGI	-0.108
HMSAQDLIVRRDSARIEARVTEISPTEIRYKRASNPDGPTYVLPLGDVRSIRYANGEEEVFAPA	-0.138
HMFLDKDTLNQLYRFGIALTGNEQDSQDVLHTAIERFLRNKPQQINQQAAYIRTIMRNYWYDELRKLKTQ	-1.61
HMGKRKDFTYTGNYFSEYKNQTFPSLSSFLKLVGKYENYGTIKRRVRFGWDIDEAILRENIN	-0.773
HMNVNTHKTLILNSTFQPLSLATPQRALALLFSKKINVLKESDIKLRSVGQSVAIPKVAVLTYFVKA	-0.291
HMEYTVNRLAQISGVSKRTLRYYDEIGLLRPERVNPNGYRIYGQMQVDLLQQILFYRELGLPLEEIREII	-0.467
HMSAAELFEERQRQYLRGRKSTKNIADNHGTIILRAGETITDQAIDKAKVAGKLVELVMNNE	0.142
HMISAADLQTYLKGMDYPAGREDLVAHAQRNNAPESVITILQGFSDRTYRSAAEVSEEFGRE	0.194
HMNTGFPIILETSDAANLTVGAPIMYRGVEVGKIRNMELNSLGDRVLIHILIGHKYQHLVRQNSEFWFSS	-4.54
HMKTTKDSVFEYIQKELMTNEEYKQGINTNVIAQHFGLQRSNISTILNELVKEDRLEKTNTRPVLYFLPQ	-0.0929
HMADRDKYIIMGQQLLRAAFEHFGKKATDKALENAANKLRISDVPELYARLGSAELQPRDVINVIFPD	-0.0534
HMTEFFNMQDMFYFKLTGDVTSKERRQSLGKILGIGYGNAAQMVSRLNNYGITKEEFTNAINEIEKQMEAG	-0.775
HMRITTKNYFKAISEVGFENLPEVLKKSHLVIEEKTNKGNDWGIYENDAEAKKVFDLAFDKLEEFIDRKED	0.45
HMNRYPIQTEVHAFNDDIIKEAINFEMSRGGQIFFVNNRIPQLYELENTIHRLVPDARVVIGHGQMP	-0.188
HMNQLSYTERRVLQVIEGGTTKTGEIEQALAAKMSRPTVHRALDALVGANRIHRLARGEYALGPAP	-0.147
